Data taken from PMC10709652, “The separation pin distinguishes the pro– and anti–recombinogenic functions of Saccharomyces cerevisiae Srs2” (Nature Communications, 2023).
Changes are numbered by the printed parent chain. Names may count otherwise.

Experiments:
[1] = substrate: Nc1ncnc2c1ncn2[C@@H]1O[C@H](COP(=O)(O)OP(=O)(O)OP(=O)(O)O)[C@@H](O)[C@H]1O; assay: ATP hydrolysis, gamma-32P-ATP, thin layer chromatography; assay type: biochemical, Saccharomyces cerevisiae; conditions: M13 ssDNA 2.5 µM (nucleotides), 2 mM MgCl2, 100 mM KCl, pH 7.6, 30 °C, 40 nM protein
[2] = substrate: Nc1ncnc2c1ncn2[C@@H]1O[C@H](COP(=O)(O)OP(=O)(O)OP(=O)(O)O)[C@@H](O)[C@H]1O; assay: as above; assay type: biochemical, Saccharomyces cerevisiae; conditions: M13 ssDNA 2.5 µM (nucleotides), 2 mM MgCl2, 100 mM KCl, pH 7.6, 30 °C, 40 nM protein; remark: listed apart in the source
Excerpt: ATP hydrolysis, gamma-32P-ATP, thin layer chromatography on Srs2^898 (GFP-Srs2 1-898) | N70A, H100A, F219A, Y283A, R268A, and R389A mutant proteins were all moderately affected

[3] = substrate: Nc1ncnc2c1ncn2[C@@H]1O[C@H](COP(=O)(O)OP(=O)(O)OP(=O)(O)O)[C@@H](O)[C@H]1O; assay: as above; assay type: biochemical, Saccharomyces cerevisiae; conditions: M13 ssDNA 2.5 µM (nucleotides), 2 mM MgCl2, 100 mM KCl, pH 7.6, 30 °C, 40 nM protein; remark: listed apart in the source
Excerpt: ATP hydrolysis, gamma-32P-ATP, thin layer chromatography on Srs2^898 (GFP-Srs2 1-898) | The F68A, P671A, and Y775A mutants were all largely unperturbed with respect to ATP hydrolysis

Srs2 898 F68A = Srs2 898 F68A (Saccharomyces cerevisiae, UniProt P12954 1-898, F68A); assay: EMSA; no ATP; 30 mM Tris-HCl pH 7.6, 100 mM KCl, 2 mM MgCl2, 1 mM DTT, 0.2 mg/mL BSA, 30 °C 10 min, no ATP; 1.3 µM (nucleotides) ssDNA, 10-100 nM protein; 10% native PAGE in; conditions: protein: recombinant; tags: N-terminal GFP; label: 5' fluorescein
GFP-Srs2 1-898 (WT) = GFP-Srs2 1-898 (WT) (Saccharomyces cerevisiae, UniProt P12954 1-898); assay: as above; conditions: protein: recombinant; tags: N-terminal GFP; label: 5' fluorescein
Srs2 898 F285A = Srs2 898 F285A (Saccharomyces cerevisiae, UniProt P12954 1-898, F285A); assay: as above; conditions: protein: recombinant; tags: N-terminal GFP; label: 5' fluorescein
Srs2 898 N70A = Srs2 898 N70A (Saccharomyces cerevisiae, UniProt P12954 1-898, N70A); assay: as above; conditions: protein: recombinant; tags: N-terminal GFP; label: 5' fluorescein
Srs2 898 H650A = Srs2 898 H650A (Saccharomyces cerevisiae, UniProt P12954 1-898, H650A); assay: as above; conditions: protein: recombinant; tags: N-terminal GFP; label: 5' fluorescein
Srs2 898 R286A = Srs2 898 R286A (Saccharomyces cerevisiae, UniProt P12954 1-898, R286A); assay: EMSA; no ATP; Kd within 10% of WT (printed R268A); 30 mM Tris-HCl pH 7.6, 100 mM KCl, 2 mM MgCl2, 1 mM DTT, 0.2 mg/mL BSA, 30 °C 10 min, no ATP; 1.3 µM (nucleotides) ssDNA, 10-100 nM protein; 10% native PAGE in; conditions: protein: recombinant; tags: N-terminal GFP; label: 5' fluorescein
Srs2 898 Y283A = Srs2 898 Y283A (Saccharomyces cerevisiae, UniProt P12954 1-898, Y283A); assay: EMSA; no ATP; Kd within 10% of WT (printed Y238A); 30 mM Tris-HCl pH 7.6, 100 mM KCl, 2 mM MgCl2, 1 mM DTT, 0.2 mg/mL BSA, 30 °C 10 min, no ATP; 1.3 µM (nucleotides) ssDNA, 10-100 nM protein; 10% native PAGE in; conditions: protein: recombinant; tags: N-terminal GFP; label: 5' fluorescein
Srs2 898 H100A = Srs2 898 H100A (Saccharomyces cerevisiae, UniProt P12954 1-898, H100A); assay: EMSA; no ATP; Kd within 10% of WT; 30 mM Tris-HCl pH 7.6, 100 mM KCl, 2 mM MgCl2, 1 mM DTT, 0.2 mg/mL BSA, 30 °C 10 min, no ATP; 1.3 µM (nucleotides) ssDNA, 10-100 nM protein; 10% native PAGE in; conditions: protein: recombinant; tags: N-terminal GFP; label: 5' fluorescein
Srs2 898 F219A = Srs2 898 F219A (Saccharomyces cerevisiae, UniProt P12954 1-898, F219A); assay: as above; conditions: protein: recombinant; tags: N-terminal GFP; label: 5' fluorescein

Chain of Srs2 898 H650A (P12954 1-898 H650A): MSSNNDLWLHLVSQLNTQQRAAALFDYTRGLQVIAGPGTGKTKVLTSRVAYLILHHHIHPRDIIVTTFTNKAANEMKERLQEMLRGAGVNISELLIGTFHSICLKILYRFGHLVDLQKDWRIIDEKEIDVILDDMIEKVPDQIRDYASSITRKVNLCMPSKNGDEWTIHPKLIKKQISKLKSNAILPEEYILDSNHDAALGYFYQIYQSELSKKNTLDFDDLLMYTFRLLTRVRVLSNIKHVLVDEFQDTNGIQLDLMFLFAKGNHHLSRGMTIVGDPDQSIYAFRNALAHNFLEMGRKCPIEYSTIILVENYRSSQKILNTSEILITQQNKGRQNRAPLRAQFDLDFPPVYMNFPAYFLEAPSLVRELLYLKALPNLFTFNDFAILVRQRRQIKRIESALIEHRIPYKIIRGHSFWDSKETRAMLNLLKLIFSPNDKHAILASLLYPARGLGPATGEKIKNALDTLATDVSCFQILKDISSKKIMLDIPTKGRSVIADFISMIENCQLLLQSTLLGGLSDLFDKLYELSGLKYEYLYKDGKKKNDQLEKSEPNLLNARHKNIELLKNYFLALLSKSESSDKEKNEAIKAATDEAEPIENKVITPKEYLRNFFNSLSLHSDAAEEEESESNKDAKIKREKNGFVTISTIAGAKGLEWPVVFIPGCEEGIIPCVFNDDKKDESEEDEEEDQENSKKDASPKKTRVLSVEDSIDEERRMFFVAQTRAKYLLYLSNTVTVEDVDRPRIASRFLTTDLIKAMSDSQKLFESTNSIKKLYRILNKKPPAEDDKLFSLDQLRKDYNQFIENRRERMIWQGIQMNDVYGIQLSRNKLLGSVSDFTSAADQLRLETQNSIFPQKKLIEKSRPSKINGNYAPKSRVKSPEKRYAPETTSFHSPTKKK
Chain of Srs2 898 N70A (P12954 1-898 N70A): as the sequence (P12954 1-898 H650A) above, with N70A, A650H counted along it
Chain of Srs2 898 F68A (P12954 1-898 F68A): as the sequence (P12954 1-898 H650A) above, with F68A, A650H counted along it

B1: Srs2^898 (GFP-Srs2 1-898) (Saccharomyces cerevisiae S288C) (protein)
chain: MSSNNDLWLHLVSQLNTQQRAAALFDYTRGLQVIAGPGTGKTKVLTSRVAYLILHHHIHPRDIIVTTFTNKAANEMKERLQEMLRGAGVNISELLIGTFHSICLKILYRFGHLVDLQKDWRIIDEKEIDVILDDMIEKVPDQIRDYASSITRKVNLCMPSKNGDEWTIHPKLIKKQISKLKSNAILPEEYILDSNHDAALGYFYQIYQSELSKKNTLDFDDLLMYTFRLLTRVRVLSNIKHVLVDEFQDTNGIQLDLMFLFAKGNHHLSRGMTIVGDPDQSIYAFRNALAHNFLEMGRKCPIEYSTIILVENYRSSQKILNTSEILITQQNKGRQNRAPLRAQFDLDFPPVYMNFPAYFLEAPSLVRELLYLKALPNLFTFNDFAILVRQRRQIKRIESALIEHRIPYKIIRGHSFWDSKETRAMLNLLKLIFSPNDKHAILASLLYPARGLGPATGEKIKNALDTLATDVSCFQILKDISSKKIMLDIPTKGRSVIADFISMIENCQLLLQSTLLGGLSDLFDKLYELSGLKYEYLYKDGKKKNDQLEKSEPNLLNARHKNIELLKNYFLALLSKSESSDKEKNEAIKAATDEAEPIENKVITPKEYLRNFFNSLSLHSDAAEEEESESNKDAKIKREKNGFVTISTIHGAKGLEWPVVFIPGCEEGIIPCVFNDDKKDESEEDEEEDQENSKKDASPKKTRVLSVEDSIDEERRMFFVAQTRAKYLLYLSNTVTVEDVDRPRIASRFLTTDLIKAMSDSQKLFESTNSIKKLYRILNKKPPAEDDKLFSLDQLRKDYNQFIENRRERMIWQGIQMNDVYGIQLSRNKLLGSVSDFTSAADQLRLETQNSIFPQKKLIEKSRPSKINGNYAPKSRVKSPEKRYAPETTSFHSPTKKK
notes: residues 1-898 of 1174 (C-terminal 276 residues omitted), N-terminal GFP tag kept, pET15b, Talon purified; expressed in E. coli Rosetta2 (DE3)
B1 showed a Km [1] of 1580 ± 710 µM and a kcat [1] of 51 ± 8 s⁻¹.

B2: Srs2^898 (GFP-Srs2 1-898) (Saccharomyces cerevisiae S288C; R389A) (protein)
chain: B1 chain with R389A
notes: as for B1
B2 gave a Km [2] of 1600 ± 720 µM and a kcat [2] of 44 ± 7 sec–1.

B3: Srs2^898 (GFP-Srs2 1-898) (Saccharomyces cerevisiae S288C; F285A) (protein)
chain: B1 chain with F285A
notes: as for B1
B3 was tested, and the Km [1] was 2750 ± 790 µM and the kcat [1] was 25 ± 4 sec–1.

B4: Srs2^898 (GFP-Srs2 1-898) (Saccharomyces cerevisiae S288C; H650A) (protein)
chain: B1 chain with H650A
notes: as for B1
Binder B4 has a Km [1] of 2910 ± 780 µM and a kcat [1] of 15 ± 2 sec–1.

B5: Srs2^898 (GFP-Srs2 1-898) (Saccharomyces cerevisiae S288C; Y775A) (protein)
chain: B1 chain with Y775A
notes: as for B1
In the case of B5, the Km [3] is reported as 1610 ± 740 µM and the kcat [3] is reported as 51 ± 8 sec–1.

B6: Srs2^898 (GFP-Srs2 1-898) (Saccharomyces cerevisiae S288C; F68A) (protein)
chain: B1 chain with F68A
notes: as for B1
B6 was tested, and the Km [3] was 1520 ± 710 µM and the kcat [3] was 49 ± 8 sec–1.

B7: Srs2^898 (GFP-Srs2 1-898) (Saccharomyces cerevisiae S288C; P671A) (protein)
chain: B1 chain with P671A
notes: as for B1
For B7, the Km [3] was 1590 ± 720 µM and the kcat [3] was 50 ± 7 sec–1.

B8: Srs2^898 (GFP-Srs2 1-898) (Saccharomyces cerevisiae S288C; N70A) (protein)
chain: B1 chain with N70A
notes: as for B1
B8 gave a Km [2] of 1320 ± 670 µM and a kcat [2] of 47 ± 7 sec–1.

B9: Srs2^898 (GFP-Srs2 1-898) (Saccharomyces cerevisiae S288C; H100A) (protein)
chain: B1 chain with H100A
notes: as for B1
B9 showed a Km [2] of 1330 ± 710 µM and a kcat [2] of 45 ± 8 sec–1.

B10: Srs2^898 (GFP-Srs2 1-898) (Saccharomyces cerevisiae S288C; F219A) (protein)
chain: B1 chain with F219A
notes: as for B1
With B10 the Km [2] was 1510 ± 660 µM and the kcat [2] was 42 ± 6 sec–1.

B11: Srs2^898 (GFP-Srs2 1-898) (Saccharomyces cerevisiae S288C; Y283A) (protein)
chain: B1 chain with Y283A
notes: as for B1
In the case of B11, the Km [2] is reported as 1520 ± 630 µM and the kcat [2] is reported as 44 ± 6 sec–1.

Binder ATTAAGCTCTAAGCCATGAATTCAAATGACCTCTTATCAA (ssDNA) [40-nt ssDNA] has a Kd (Srs2 898 F68A) of 31 ± 2 nM, a Kd (GFP-Srs2 1-898 (WT)) of 29 ± 3 nM and a Kd (Srs2 898 F285A) of 41 nM. For the same binder, the Kd (Srs2 898 N70A) was 30 ± 3 nM, the Kd (Srs2 898 H650A) was 46 ± 3 nM and the binding result (Srs2 898 R286A) was “binds”. ATTAAGCTCTAAGCCATGAATTCAAATGACCTCTTATCAA (ssDNA) [40-nt ssDNA]: binds (Srs2 898 Y283A); binds (Srs2 898 H100A); binds (Srs2 898 F219A).
